Measurements reported in patent publication US20260183373.

Legend:
Aβ(1-40) = Aβ(1-40) (UniProt P05067)
Aβ(1-42) = Aβ(1-42) (UniProt P05067)

Chain of MMP2 (P08253 110-660): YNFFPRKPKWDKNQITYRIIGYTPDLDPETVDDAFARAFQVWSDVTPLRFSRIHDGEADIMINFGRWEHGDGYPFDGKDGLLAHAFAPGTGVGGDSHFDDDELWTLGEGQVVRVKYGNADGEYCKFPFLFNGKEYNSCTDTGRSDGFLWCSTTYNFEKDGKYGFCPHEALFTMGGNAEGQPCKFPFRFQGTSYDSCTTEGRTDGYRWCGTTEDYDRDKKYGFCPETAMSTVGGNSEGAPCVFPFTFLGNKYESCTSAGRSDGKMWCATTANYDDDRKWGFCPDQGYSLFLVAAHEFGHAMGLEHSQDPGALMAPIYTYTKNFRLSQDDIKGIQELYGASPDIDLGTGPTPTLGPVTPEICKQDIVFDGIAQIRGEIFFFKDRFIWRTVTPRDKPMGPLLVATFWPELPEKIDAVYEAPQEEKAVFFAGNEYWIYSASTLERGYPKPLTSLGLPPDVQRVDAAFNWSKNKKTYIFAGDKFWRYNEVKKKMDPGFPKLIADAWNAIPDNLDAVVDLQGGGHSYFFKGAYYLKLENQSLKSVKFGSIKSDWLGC

Substance	stated: cleaves; Aβ cleavage assay, intact Aβ by ELISA (% untreated) (Aβ(1-40))	stated: cleaves; Aβ cleavage assay, intact Aβ by ELISA (% untreated) (Aβ(1-42))
MMP2	about 105 % up to about 30 nM, about 45 % near 100 nM, about 0 % from about 300 nM	drifts from about 90 % to about 65 % between 0.01 and 30 nM (no flat upper plateau), about 40 % near 100 nM, about 0 % from about 300 nM
MMP9	about 100 % up to about 30 nM, about 80 % near 100 nM, about 40 % near 300 nM, about 10 % at the highest concentration (about 1000 nM), no lower plateau	about 80 % up to about 30 nM, about 60 % near 100 nM, about 35 % near 300 nM, below 10 % at the highest concentration (about 1000 nM), no lower plateau
NEP2	stays near 100 % up to about 10 nM, about 60 % near 30 nM, about 25 % near 100 nM, about 0 % from about 300 nM	stays near 90 % up to about 10 nM, about 60 % near 30 nM, about 35 % near 100 nM, about 0 % at the highest concentration (about 1000 nM)
MTSP1	about 100 % up to about 30 nM, about 70 % near 100 nM, about 35 % near 300 nM, about 13 % at the highest concentration (about 1000 nM), no lower plateau	about 100 % up to about 10 nM, about 70 % near 100 nM, about 47 % near 300 nM, about 20 % at the highest concentration (about 1000 nM), no lower plateau
ECE1	near 100 % up to about 10 nM, falls to about 30 % at the highest concentration (about 1000 nM), no lower plateau	near 100 % up to about 10 nM, falls only to about 60 % at the highest concentration (about 1000 nM), no lower plateau
